In article PMC8701324 (2021):

Target: MRG15 MRG domain, amino acids 155-323 (UniProt Q9UBU8-2 155-323)
Experiment: FP

Chain of MRG15 MRG domain, amino acids 155-323 (Q9UBU8 194-362): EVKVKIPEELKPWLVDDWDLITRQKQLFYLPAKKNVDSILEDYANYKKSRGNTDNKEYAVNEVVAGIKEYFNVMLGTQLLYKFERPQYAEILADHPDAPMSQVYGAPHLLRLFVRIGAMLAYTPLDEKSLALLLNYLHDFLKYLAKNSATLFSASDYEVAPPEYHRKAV

Ki: 9.8 nM
B1: 6xHis-PALB2^597-630 (peptide)
chain: MLSLKQLLSFLSITDFQLPDEDFGPLKLEKVKSC
